Results on 7 molecules are retold here after article PMC11843895, “Single-Molecule Nanopore Sequencing of the CpG Island from the Promoter of O6-Methylguanine-DNA Methyltransferase Provides Insights into the Mechanism of De Novo Methylation of G/C-Rich Regions”.

Data set [1] deals with T1, Dnmt3a-CD (UniProt O88508 608-908). Kind of data set: BLI; 100 uM AdoHcy; BLI: 20 mM HEPES-NaOH pH 7.5, 100 mM KCl, 1 mM EDTA, 0.2 mM DTT, 100 uM AdoHcy, 5% glycerol, 0.02% Tween-20, 0.5 mg/mL BSA, 25 C; inhibition: buffer A (20 mM HEPES-NaOH pH 7.5, 100 mM KCl, 1 mM EDTA, 1 mM DTT) with 25 uM AdoMet, 37 C; FP: buffer A. Conditions: protein: recombinant, tags: N-terminal 6xHis, chain copies: 2. On the technique in general: In BLI a coated tip is dipped into the sample, and binding shifts an interference pattern.
T1 sequence (O88508 608-908): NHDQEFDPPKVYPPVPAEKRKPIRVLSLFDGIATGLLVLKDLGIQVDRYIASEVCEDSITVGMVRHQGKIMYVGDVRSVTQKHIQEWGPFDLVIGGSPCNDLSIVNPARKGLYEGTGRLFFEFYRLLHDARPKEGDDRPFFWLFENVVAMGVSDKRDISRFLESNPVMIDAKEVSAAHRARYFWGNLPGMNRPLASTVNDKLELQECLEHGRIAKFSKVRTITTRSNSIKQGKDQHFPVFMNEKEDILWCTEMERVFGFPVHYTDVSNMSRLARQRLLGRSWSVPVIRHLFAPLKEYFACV

In data set [2] the target is T1, Dnmt3a-CD. Kind of data set: competition (inhibition of methylation); 300 nM MGMT-ds1-f substrate, 2 uM enzyme, 25 uM AdoMet; BLI: 20 mM HEPES-NaOH pH 7.5, 100 mM KCl, 1 mM EDTA, 0.2 mM DTT, 100 uM AdoHcy, 5% glycerol, 0.02% Tween-20, 0.5 mg/mL BSA, 25 C; inhibition: buffer A (20 mM HEPES-NaOH pH 7.5, 100 mM KCl, 1 mM EDTA, 1 mM DTT) with 25 uM AdoMet, 37 C; FP: buffer A. Conditions: protein: recombinant, tags: N-terminal 6xHis, chain copies: 2.

B1: MGMT-ds2-bio (dsDNA)
DNA 1: CTCCGCCCCCGCGCGCCCCGGCCC
DNA 2: GGGCCGGGGCGCGCGGGGGCGGAG
On to B1, for which the Kd with Dnmt3a-CD [1] (label: 5' biotin on strand 1 (C-rich), blunt) amounted to 15 ± 0.5 nM.
As for GGGCCGGGGCGCGCGGGGGCGGAG (structured_DNA) [MGMT-G4], the 50% inhibitory concentration (IC50) with Dnmt3a-CD [2] (G4, mixed hybrid (CD)) is 610 ± 30 nM.
In the case of GTGCCGGAGCGCGCGGAGGCGGAG (ssDNA) [MGMT-G4-mut], the IC50 with Dnmt3a-CD [2] (no G4 by CD) is 590 ± 90 nM.

B2: MGMT-ds1-bio (dsDNA)
DNA 1: GGTCCTGCAGGCGCCCTCACTT
DNA 2: AAGTGAGGGCGCCTGCAGGACC
Regarding B2, the Kd with Dnmt3a-CD [1] (label: 5' biotin on strand 1, blunt) was determined as 65 ± 2 nM.
On to CTGAATACTACTTCCTACCCCTTACCTGAT (ssDNA) [non-specific control (no CpG)], for which the IC50 in the data set with Dnmt3a-CD [2] was found to be 2400 ± 700 nM.
With GGGCCGGGGCGCGCGGGGGCGGAG (structured_DNA) [MGMT-G4-bio], the Kd with Dnmt3a-CD [1] (label: 5' biotin, G4, mixed hybrid (CD of unlabeled MGMT-G4)) stood at 14 ± 0.4 nM.
In the case of CTCCGCCCCCGCGCGCCCCGGCCC (ssDNA) [MGMT-C-bio], the Kd with Dnmt3a-CD [1] (label: 5' biotin) was 211 ± 21 nM.

Usually Kd stands for the free concentration of one partner at which half of the binding sites on the other are occupied at equilibrium, for simple one-to-one binding. What is called IC50 is the concentration at which inhibition is half-maximal.
